The values below come from the DeepSol protein solubility set.

A short description of this data set: soluble on expression in E. coli; label from the status in PepcDB or PDB records.
As for “MGGSHHHHHHGMASSSNVPADMINLRLILVSGKTKEFLFSPNDSASDIAKHVYDNWPMDWEEEQVSSPNILRLIYQGRFLHGNVTLGALKLPFGKTTVMHLVARETLPEPNSQGQRNREKTGESNCCVIL”, the “soluble on expression in E. coli” value is given as “not soluble”. Then “MGGWEEREIRGHSLGHWLSAAAAMYETTGDKALLERIDRAVQELATIQDDVGYVGGVKRAHFDEMFSGEFQVGHFNIAGTWVPWYNLHKLFAGLIDVHQLTGHSLALTVVTKLADWAKKGTDQLTDDQFQRMLICEHGGMNEAMADLYTLTGHKDYLQLAIRFCHWAVLEPLANGIDELEGKHANTQIPKVIGAAKLFEITGDDTYRAIAEFFWRQVTNDRSYIIGGNSNSEHFGPANKETLGVETAETCNTYNMLKLTEHLFRWNRSSQLMDYYEKALYNHILASQDPDSGMKTYFVSLQPGHFKVYSSLEESFWCCFGTGLENPARYTRTIYDRDDRHIYVNLFMASEIHLKDLQVQIRQETNFPETDRTKLTFVKADGVSIKLHIRVPEWVAGPVTARINGKETFSESGADYLTIEREWQKGDEIEVHLPMELRIYEAKDDSHKVGIMYGPIVLAGTFGKDHFPETDIVPNHLSLHNHPLIDVPTLVATKKTPDQWIHPVEGRSLTFRTAAIGQPGNVQITLIPFYALHHERYTVYWNLMSEVEYEAFKARKEVESDQLQARTVDAVQPGEQQPEVEHQLKANHSETGYLNIMQKRWRDSRGEDGFFSYVMKVKPNQQMSLFVTYYGGDHGLFVDGKWCDRSFRILIDDEVIKEEQLLGKNPGETLDVYYPIPLALTEGKEEVVVTFASKEGTVAGGVYGVRMLCNLEHHHHHH”, with “not soluble”. Turning to “MGHERDWSLVQVALTDITARKKAEAYLEYLGKHDVLTKLHNRAFYSDELNRLERSALRPVSAIVIDLNGLKEANDKLGHDAGDALLRRVGEVLNGVVTAPNHAARIGGDEFAILLPGADKQVAAAMVDTVYELLKINNQFYSSAPLSLSLGVATTEAGETMESLVRRADMNMYEQKNAYYAALRNRSADNNDTTKGLEHHHHHH”, the “soluble on expression in E. coli” value is “not soluble”.

Regarding “MGHHHHHHGGHMSLAAQELLRDAFTRLIEHVDELTDGLTDQLACYRPTPSANSIAWLLWHSARVQDIQVAHVAGVEEVWTRDGWVDRFGLDLPRHDTGYGHRPEDVAKVRAPADLLSGYYHAVHKLTLEYIAGMTADELSRVVDTSWNPPVTVSARLVSIVDDCAQHLGQAAYLRGIAEGGS”, the “soluble on expression in E. coli” value is reported as “soluble”.

With “MGHHHHHHGGHMSLHSGSVEHCIKGRSRRAAPRSEHTGRMADIARKASAHWEGDLKSGNGTITTESGVLSQAQYSFKTRFENGKGTNPEELLASAHAGCFTMQLSALLAEHGHEIKALDTDATCEMVKDGPGFKINHMHLRVRAQLTGSDQADFEAHVKDAAEKCPLSRIMQGNVEVTHEAILEGEGGS”, the “soluble on expression in E. coli” value was “soluble”. Then “MGHHHHHHGGHMSLIGFLTDWGLKSHYVGVAKAVIKRINPSAEIIDITHEVEPFNVRKASHVLYRASLDFPPSTVFLVVVDYGVGTSRKAIVMKTKNDQYFVAPDNGVLTVVAEEYGVAEIREIENRELFYKKNPSFTFHGRDIFAPVAAHLDMGLPLERVGDRLLSYEVLKMRKPVVENEKVIGEVAIVDTFGNVSTNIPFDLFLKLSVDFDDVVRVRVGRKEFKAAVAKAFGDVDTGELLVHPDSAGFLEIAVNLGDASQVLSVKEGDEIEICREGGS”, with “soluble”; and “MGHHHHHHGGHMSLKIYVVYDSEGEHTKVLAEAIAEGARENDAAEVFIDHVDQADIRKLKDMDAIIWGCPGHFGTISSGLKTWIDRLGYLWAEGELINKVGAVFCTTATTHGGLEMTMHNLITPMFHQGMIVVGLPGNVPENALYGSYYGAGVTCPVDSDELMSEEGIQLGRALGRRVSQVTGNLTAGQEGGS”, with “soluble”.

Turning to “MGHHHHHHGGHMSLRTEEEMFQLIMDVAKQEEHIRAVGMVGSRTNVKAPKDSFQDFDIVYIVEPCAEFFETATWIAKFGQPLIMQRPKEMTLFPTEPKTRETFLMLFEDGQRIDLTLCPLAEKDNWHEGDSLAIILLDKDENLPPLPVASDKNYTVTVPDQQQFNDCCNEFWWVSTYVVKGLCRNELFYAVTHLYEYCQQELLRLLSWQAAWQEPEPISVGKQFKYLKNYVTPDTMDQLASLLDFSSKEACWNSLIKTQAFFDVVAQDFAKMAQFTYHLQEAKKVTEYTNSLRLKDLQGKEGGS”, the “soluble on expression in E. coli” value is on record as “not soluble”. For “MGHHHHHHHHHHSSGHIEGRHMEANGLGPQGFPELKNDTFLRAAWGEETDYTPVWCMRQAGRYLPEFRETRAAQDFFSTCRSPEACCELTLQPLRRFPLDAAIIFSDILVVPQALGMEVTMVPGKGPSFPEPLREEQDLERLRDPEVVASELGYVFQAITLTRQRLAGRVPLIGFAGAPWTLMTYMVEGGGSSTMAQAKRWLYQRPQASHQLLRILTDALVPYLVGQVVAGAQALQLFESHAGHLGPQLFNKLALPYIRDVAKQVKARLREAGLAPVPMIIFAKDGHFALEELAQAGYEVVGLDWTVAPKKARECVGKTVTLQGNLDPCALYASEEEIGQLVKQMLDDFGPHRYIANLGHGLYPDMDPEHVGAFVDAVHKHSRLLRQN”, the “soluble on expression in E. coli” value is recorded as “soluble”. As for “MGHHHHHHHHMTTSILDTYPQICSPNALPGTPGNLTKEQEEALLQFRSILLEKNYKERLDDSTLLRFLRARKFDINASVEMFVETERWREEYGANTIIEDYENNKEAEDKERIKLAKMYPQYYHHVDKDGRPLYFEELGGINLKKMYKITTEKQMLRNLVKEYELFATYRVPACSRRAGYLIETSCTVLDLKGISLSNAYHVLSYIKDVADISQNYYPERMGKFYIIHSPFGFSTMFKMVKPFLDPVTVSKIFILGSSYKKELLKQIPIENLPVKYGGTSVLHNPNDKFYYSDIGPWRDPRYIGPEGEIPNIFGKFTVTS”, the “soluble on expression in E. coli” value is on record as “soluble”. On to “MGHHHHHHMAGGGKHTPTPKAIIHQKFGAKASYTVEEVHDSSQSGCPGLAIPQKGPCLYRCHLQLPEFSVVSNVFKKKKDSEQSAAELALDKLGIRPQNDDLTVDEARDEIVGRIKYIFSDEFLSAEHPLGAHLRAALRRDGERCGSVPVSVIATVDAKINSRCKIINPSVESDPFLAISYVMKAAAKLADYIVASPHGLRRKNAYPSEIVEALATHVSDSLHSREVAAVYIPCIDEEVVELDTLYISSNRHYLDSIAERLGLKDGNQVMISRMFGKASCGSECRLYSEIPKKYLDNSSDASGTSNEDSSHIVKSRNARASYICGQDIHGDAILASVGYRWKSDDLDYDDVTVNSFYRICCGMSPNGIYKISRQAVIAAQLPFAFTTKSNWRGPLPREILGLFCHQHRLAEPILSSSTAPVKSLSDIFRSHKKLKVSGVDDANENLSRQKEDTPGLGHGFRCEVKIFTKSQDLVLECSPRKFYEKENDAIQNASLKALLWFSKFFADLDVDGEQSCDTDDDQDTKSSSPNVFAAPPILQKEHSSESKNTNVLSAEKRVQSITNGSVVSICYSLSLAVDPEYSSDGESPREDNESNEEMESEYSANCESSVEPIESNEEIEFEVGTGSMNPHIESEVTQMTVGEYASFKMTPPDAAEALILAVGSDTVRIRSLLSERPCLNYNILLLGVKGPSEERMEAAFFKPPLSKQRVEYALKHIRESSASTLVDFGCGSGSLLDSLLDYPTSLQTIIGVDISPKGLARAAKMLHVKLNKEACNVKSATLYDGSILEFDSRLHDVDIGTCLEVIEHMEEDQACEFGEKVLSLFHPKLLIVSTPNYEFNTILQRSTPETQEENNSEPQLPKFRNHDHKFEWTREQFNQWASKLGKRHNYSVEFSGVGGSGEVEPGFASQIAIFRREASSVENVAESSMQPYKVIWEWKKEDVEKKKTDL”, for which the “soluble on expression in E. coli” value is given as “soluble”. In the case of “MGHHHHHHSHAFDLTVPTTNQFLLQYLRRQGVCVRTENLAKYVAELSLLEADPFLKYLPSLIAAAAFCLANYTVNKHFWPETLAAFTGYSLSEIVPCLSELHKAYLDIPHRPQQAIREKYKASKYLCVSLMEPPAVLLLQ”, the “soluble on expression in E. coli” value was “not soluble”. For “MGHHHHHHSHDGAEPGRVDTFWYKFLKREPGGELSWEGNGPHHDRCCTYNENNLVDGVYCLPIGHWIEATGHTNEMKHTTDFYFNIAGHQAMHYSRILPNIWLGSCPRQVEHVTIKLKHELGITAVMNFQTEWDIVQNSSGCNRYPEPMTPDTMIKLYREEGLAYIWMPTPDMSTEGRVQMLPQAVCLLHALLEKGHIVYVHCNAGVGRSTAAVCGWLQYVMGWNLRKVQYFLMAKRPAVYIDEEALARAQEDFFQKFGKVRSSVCSL”, the “soluble on expression in E. coli” value is reported as “not soluble”. Consider “MGHHHHHHSHGESEDVTQFLQSHKKTLTNEKLFLMDGKRTWFLEMESTPGEDAMNTVKMTTKDLKYDRSLIDKAGFERTDSNFERSHTVGKMLSNSIMCYRDIFYERESQLMQQTSLLSYEIAIATPTFSNYYPDWSAPINIVARPSTSKKIMTC”, for which the “soluble on expression in E. coli” value is listed as “not soluble”.

Regarding “MGHHHHHHSHIHRIDSTEVIYQPRRKRAKLIGKYLMGDLLGEGSYGKVKEVLDSETLCRRAVKILKKKKLRRIPNGEANVKKEIQLLRRLRHKNVIQLVDVLYNEEKQKMYMVMEYCVCGMQEMLDSVPEKRFPVCQAHGYFCQLIDGLEYLHSQGIVHKDIKPGNLLLTTGGTLKISDLGVAEALHPFAADDTC”, the “soluble on expression in E. coli” value was “not soluble”. In the case of “MGHHHHHHSHMADIPSFQGTTLTRDTVRQLVSDIFIYKMPFNIELGLELQQFEADKAVLTFARQDKLIGNAAQKILHGGVIAAGLDVAAGLVCVGNTLLRHETISDQEFHHRLARMGTIDMRVDYLRPGYGERFTITSTLLRGGNKIAVARAELHNEQGSHLASATATYIVG” it was “soluble”. In the case of “MGHHHHHHSHMAIPITVLDCDLLLYGRGHRTLDRFKLDDVTDEYLMSMYGFPRQFIYYLVELLGANLSRPTQRSRAISPETQVLAALGFYTSGSFQTRMGDAIGISQASMSRCVANVTEALVERASQFIRFPADEASIQALKDEFYGLAGMPGVMGVVDCIHVAIKAPNAEDLSYVNRKGLHSLNCLMVCDIRGTLMTVETNWPGSLQDCAVLQQSSLSSQFEAGMHKDSWLLGDSSFFLRTWLMTPLHIPETPAEYRYNMAHSATHSVIEKTFRTLCSRFRCLDGSKGALQYSPEKSSHIILACCVLHNISLEHGMDVWSSPMTGPMEQPPEEEYEHMESLDLEADRIRQELMLTHFS” it was “not soluble”; in that of “MGHHHHHHSHMANSAGSMANSAGSKEFAYQNKVEELTSYAVQIANEFQSGQVDMRRLYPYQDILSTRKTQFIIFNEEQQPYFLPEGFHHPPREQLKKSEWNKLKKGQTVTIRADGRFDDEVSLVAQPIFVQNEFKGAVLLISPISGVEQMVNQ”, “not soluble”; in that of “MGHHHHHHSHMAQLMEVLSVTPTQSPENNDLISYNSVWVACQQMPQIPRDNKAAALLMLTKNVDFVKDAHEEMEQAVEECDPYSGLLNDTEENNSDNHNHEDDVLGFPSNQDLYWSEDDQELIIPCLALVRASKACLKKIRMLVAENGKKDQVAQLDDIVDISDEISPSVDDLALSIYPPMCHLTVRINSAKLVSVLKKALEITKASHVTPQPEDSWIPLLINAIDHCMNRIKELTQSELEL”, “not soluble”. Regarding “MGHHHHHHSHMASLAVSNWPKPMPLIPCLSWSTASGVFTTGVLSKPINWRELEKQYYTQTVYEEEIIHMLEYCGTDSFKMGQEFVKHFTSSADKLTNLNLVSRTLNLDISNQVVSQKPADCHNSSKTSVSATSEGLLLQDTSKMKRFNQTLSTNKSGYTSRNPQSYHLLSKEQSRNSLRKESLIFMKGVMDECTHVANFSVPVDPSLIIVVQAKEDAYIPRTGVRSLQEIWPGCEIRYLEGGHISAYLFKQGLFR”, the “soluble on expression in E. coli” value is recorded as “soluble”. Regarding “MGHHHHHHSHMDNAEAQFTTALRLTNHQELWAFIVTNLASVYIREGNRHQEVLYSLLERINPDHSFPVSSHCLRAAAFYVRGLFSFFQGRYNEAKRFLRETLKMSNAEDLNRLTACSLVLLGHIFYVLGNHRESNNMVVPAMQLASKIPDMSVQLWSSALLRDLNKACGNAMDAHEAAQMHQNFSQQLLQDHIEACSLPEHNLITWTDGPPPVQFQAQNGPNTSLASLL”, the “soluble on expression in E. coli” value is given as “not soluble”.
